The values that follow come from the Human Domainome abundance scans (Beltran et al. 2025).

± gives the uncertainty stated by the source.

B1: RUN and FYVE domain-containing protein 1, residues 639 to 698; numbered along this chain, Q96T51 (parent)
chain: WLKDDEATHCRQCEKEFSISRRKHHCRNCGHIFCNTCSSNELALPSYPKPVRVCDSCHTL

In this data set the parent is B1. As to the kind of experiment: abundance fitness (aPCA) (normalised: wild type 0, dead -1); higher = more abundant; growth selection in yeast, the domain comes from the species named. The note with it: Homo sapiens.
Turning to WLKDDEATHCRQCEKEFSISRRKHHCRNCCHIFCNTCSSNELALPSYPKPVRVCDSCHTL [G30C], the abundance fitness was -0.453 ± 0.075. The same measure for WLKDDEATHCRQCEKEFSISRRKHHCRNCKHIFCNTCSSNELALPSYPKPVRVCDSCHTL [G30K]: -1.17 ± 0.1.

WLKDDEATHCRQCEKEFSISRRKHHCRNAGHIFCNTCSSNELALPSYPKPVRVCDSCHTL [C29A]: the abundance fitness was -1.03 ± 0.091. As for WLKDDEATHCRQCEKEFSISRRKHHCRNWGHIFCNTCSSNELALPSYPKPVRVCDSCHTL [C29W], the abundance fitness was -1.03 ± 0.097. The same measure for WLKDDEATHCRQCEKEFSISRRKHHCRNYGHIFCNTCSSNELALPSYPKPVRVCDSCHTL [C29Y]: -0.852 ± 0.097; for WLKDDEATHCRQCEKEFSISRRKHHCRNQGHIFCNTCSSNELALPSYPKPVRVCDSCHTL [C29Q]: -1.23 ± 0.18; for WLKDDEATHCRQCEKEFSISRRKHHCRNDGHIFCNTCSSNELALPSYPKPVRVCDSCHTL [C29D]: -0.709 ± 0.11. In the case of WLKDDEATHCRQCEKEFSISRRKHHCRNEGHIFCNTCSSNELALPSYPKPVRVCDSCHTL [C29E], the abundance fitness is -0.666 ± 0.068.

Consider WLKDDEATHCRQCEKEFSISRRKHHCRNLGHIFCNTCSSNELALPSYPKPVRVCDSCHTL [C29L], for which the abundance fitness was -0.875 ± 0.08. The same measure for WLKDDEATHCRQCEKEFSISRRKHHCRNSGHIFCNTCSSNELALPSYPKPVRVCDSCHTL [C29S]: -1.01 ± 0.1. For WLKDDEATHCRQCEKEFSISRRKHHCRNTGHIFCNTCSSNELALPSYPKPVRVCDSCHTL [C29T], the abundance fitness was -0.818 ± 0.1. For the variant WLKDDEATHCRQCEKEFSISRRKHHCRNPGHIFCNTCSSNELALPSYPKPVRVCDSCHTL [C29P], the abundance fitness is -0.835 ± 0.081. Take WLKDDEATHCRQCEKEFSISRRKHHCRNNGHIFCNTCSSNELALPSYPKPVRVCDSCHTL [C29N]: the abundance fitness was -0.942 ± 0.16. Next, WLKDDEATHCRQCEKEFSISRRKHHCRNKGHIFCNTCSSNELALPSYPKPVRVCDSCHTL [C29K]: -1.11 ± 0.23; WLKDDEATHCRQCEKEFSISRRKHHCRNMGHIFCNTCSSNELALPSYPKPVRVCDSCHTL [C29M]: -0.906 ± 0.094. On to WLKDDEATHCRQCEKEFSISRRKHHCRNHGHIFCNTCSSNELALPSYPKPVRVCDSCHTL [C29H], for which the abundance fitness was -1.25 ± 0.26. Consider WLKDDEATHCRQCEKEFSISRRKHHCRNVGHIFCNTCSSNELALPSYPKPVRVCDSCHTL [C29V], for which the abundance fitness is -0.904 ± 0.07. As for WLKDDEATHCRQCEKEFSISRRKHHCRNFGHIFCNTCSSNELALPSYPKPVRVCDSCHTL [C29F], the abundance fitness is -0.871 ± 0.098. Next, WLKDDEATHCRQCEKEFSISRRKHHCRNIGHIFCNTCSSNELALPSYPKPVRVCDSCHTL [C29I]: -1.11 ± 0.11; WLKDDEATHCRQCEKEFSISRRKHHCRNGGHIFCNTCSSNELALPSYPKPVRVCDSCHTL [C29G]: -1 ± 0.075; WLKDDEATHCRQCEKEFSISRRKHYCRNCGHIFCNTCSSNELALPSYPKPVRVCDSCHTL [H25Y]: 0.097 ± 0.068. Regarding WLKDDEATHCRQCEKEFSISRRKHSCRNCGHIFCNTCSSNELALPSYPKPVRVCDSCHTL [H25S], the abundance fitness was determined as 0.07 ± 0.034. For the variant WLKDDEATHCRQCEKEFSISRRKHRCRNCGHIFCNTCSSNELALPSYPKPVRVCDSCHTL [H25R], the abundance fitness is 0.151 ± 0.044.

As for WLKDDEATHCRQCEKEFSISRRKHWCRNCGHIFCNTCSSNELALPSYPKPVRVCDSCHTL [H25W], the abundance fitness came out at 0.128 ± 0.053. The same measure for WLKDDEATHCRQCEKEFSISRRKHTCRNCGHIFCNTCSSNELALPSYPKPVRVCDSCHTL [H25T]: -0.118 ± 0.055; for WLKDDEATHCRQCEKEFSISRRKHQCRNCGHIFCNTCSSNELALPSYPKPVRVCDSCHTL [H25Q]: 0.169 ± 0.046; for WLKDDEATHCRQCEKEFSISRRKHVCRNCGHIFCNTCSSNELALPSYPKPVRVCDSCHTL [H25V]: 0.044 ± 0.04. Next, WLKDDEATHCRQCEKEFSISRRKHHCRKCGHIFCNTCSSNELALPSYPKPVRVCDSCHTL [N28K]: -0.202 ± 0.066. For the variant WLKDDEATHCRQCEKEFSISRRKHHCRPCGHIFCNTCSSNELALPSYPKPVRVCDSCHTL [N28P], the abundance fitness is -0.244 ± 0.069. On to WLKDDEATHCRQCEKEFSISRRKHHCRRCGHIFCNTCSSNELALPSYPKPVRVCDSCHTL [N28R], for which the abundance fitness was -0.176 ± 0.034. Next, WLKDDEATHCRQCEKEFSISRRKHHCRQCGHIFCNTCSSNELALPSYPKPVRVCDSCHTL [N28Q]: -0.147 ± 0.054; WLKDDEATHCRQCEKEFSISRRKHHCRMCGHIFCNTCSSNELALPSYPKPVRVCDSCHTL [N28M]: -0.252 ± 0.05; WLKDDEATHCRQCEKEFSISRRKHHCRYCGHIFCNTCSSNELALPSYPKPVRVCDSCHTL [N28Y]: -0.283 ± 0.065. The same measure for WLKDDEATHCRQCEKEFSISRRKHHCRACGHIFCNTCSSNELALPSYPKPVRVCDSCHTL [N28A]: -0.046 ± 0.037; for WLKDDEATHCRQCEKEFSISRRKHHCRICGHIFCNTCSSNELALPSYPKPVRVCDSCHTL [N28I]: -0.261 ± 0.065. The same measure for WLKDDEATHCRQCEKEFSISRRKHHCRCCGHIFCNTCSSNELALPSYPKPVRVCDSCHTL [N28C]: 0.058 ± 0.09; for WLKDDEATHCRQCEKEFSISRRKHHCRHCGHIFCNTCSSNELALPSYPKPVRVCDSCHTL [N28H]: 0.05 ± 0.064. As for WLKDDEATHCRQCEKEFSISRRKHHCRSCGHIFCNTCSSNELALPSYPKPVRVCDSCHTL [N28S], the abundance fitness was -0.099 ± 0.038. For the variant WLKDDEATHCRQCEKEFSISRRKHHCRFCGHIFCNTCSSNELALPSYPKPVRVCDSCHTL [N28F], the abundance fitness is -0.177 ± 0.12.

Regarding WLKDDEATHCRQCEKEFSISRRKHHCRGCGHIFCNTCSSNELALPSYPKPVRVCDSCHTL [N28G], the abundance fitness was -0.1 ± 0.044. In the case of WLKDDEATHCRQCEKEFSISRRKHHCRDCGHIFCNTCSSNELALPSYPKPVRVCDSCHTL [N28D], the abundance fitness was -0.19 ± 0.08.

Consider WLKDDEATHCRQCEKEFSISRRKHHCRLCGHIFCNTCSSNELALPSYPKPVRVCDSCHTL [N28L], for which the abundance fitness was -0.342 ± 0.043. The same measure for WLKDDEATHCRQCEKEFSISRRKHHCRWCGHIFCNTCSSNELALPSYPKPVRVCDSCHTL [N28W]: -0.13 ± 0.043; for WLKDDEATHCRQCEKEFSISRRKHHCRTCGHIFCNTCSSNELALPSYPKPVRVCDSCHTL [N28T]: -0.306 ± 0.059; for WLKDDEATHCRQCEKEFSISRRKHHCRVCGHIFCNTCSSNELALPSYPKPVRVCDSCHTL [N28V]: -0.285 ± 0.044.
